# T1: human IL-36R extracellular domain expressed with a C-terminal mouse IgG2a Fc tag (hIL-36R-mFc) (human; mouse, UniProt Q9HB29 20-337)
# T1 construct: not shown: mouse IgG2a Fc, E98-K330
# T1 sequence (looked up): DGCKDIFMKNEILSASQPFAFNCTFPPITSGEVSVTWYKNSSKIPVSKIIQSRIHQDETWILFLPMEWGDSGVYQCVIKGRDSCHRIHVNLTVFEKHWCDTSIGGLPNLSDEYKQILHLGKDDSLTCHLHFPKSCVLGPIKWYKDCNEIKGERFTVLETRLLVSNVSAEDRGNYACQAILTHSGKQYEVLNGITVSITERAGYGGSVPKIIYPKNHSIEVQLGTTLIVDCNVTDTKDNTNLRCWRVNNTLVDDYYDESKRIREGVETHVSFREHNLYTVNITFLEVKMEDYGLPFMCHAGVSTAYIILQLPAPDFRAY
# T2: in-line fusion protein of human IL-36R extracellular domain and IL1RAcP extracellular domain expressed with … (human; mouse, UniProt Q9HB29 20-337; Q9NPH3 21-359, limits assumed)
# T2 construct: not shown: mouse IgG2a Fc
# T2 sequence (looked up): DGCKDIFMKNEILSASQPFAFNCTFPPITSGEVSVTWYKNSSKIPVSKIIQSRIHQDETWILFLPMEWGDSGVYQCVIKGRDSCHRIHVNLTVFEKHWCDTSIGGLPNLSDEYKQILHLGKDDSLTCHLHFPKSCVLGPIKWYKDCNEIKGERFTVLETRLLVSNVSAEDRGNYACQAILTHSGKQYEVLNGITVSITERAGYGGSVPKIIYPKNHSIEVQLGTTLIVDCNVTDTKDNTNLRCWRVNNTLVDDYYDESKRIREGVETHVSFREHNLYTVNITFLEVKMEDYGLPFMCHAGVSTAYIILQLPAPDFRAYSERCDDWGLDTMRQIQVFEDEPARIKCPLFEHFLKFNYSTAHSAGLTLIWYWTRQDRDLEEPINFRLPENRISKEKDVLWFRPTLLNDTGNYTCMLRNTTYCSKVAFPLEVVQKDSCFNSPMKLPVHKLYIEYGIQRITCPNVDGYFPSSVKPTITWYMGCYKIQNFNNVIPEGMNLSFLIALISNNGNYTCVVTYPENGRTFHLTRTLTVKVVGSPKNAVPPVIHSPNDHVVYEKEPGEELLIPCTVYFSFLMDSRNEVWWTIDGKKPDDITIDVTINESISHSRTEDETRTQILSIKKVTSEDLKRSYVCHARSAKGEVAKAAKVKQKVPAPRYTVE
# B1: H4H14760P2 (antibody, human IgG4 S228P, kappa, V domains shown)
# VH: QVQLVESGGGVVQPGKSLRLSCAASGFTFSNYGIHWVRQAPGKGLEWVAIILYDGSNQHYADSVKGRFTISRDNSKNTLYLQMNNLRAEDTAVYYCARDLDLWSGYYTNGDGMDVWGQGTTVTVSS
# VL: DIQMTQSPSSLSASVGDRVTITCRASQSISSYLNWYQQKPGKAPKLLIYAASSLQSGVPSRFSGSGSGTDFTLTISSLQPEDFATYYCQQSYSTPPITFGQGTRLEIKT
# notes: Fully human anti-IL-36R antibody
# B2: H4H14757P (antibody, human IgG4 S228P, kappa, V domains shown)
# VH: EVQLVESGGGLVQPGRSLRLSCTASGFTFDDYAMHWVRQAPGKGLEWVSGIRWNGGSIGYVDSVKGRFTISRDNAKKSLHLQMNSLKTEDTALYYCAKDIGDILTGFYGEYGMDVWGQGTTVTVSS
# VL: DIQMTQSPSSLSASEGDRVTITCRASQSISSYLNWYQQKAGKAPNLLIYAASSLQSGVPSRFSGSGSGTEYTLTISSLQPEDFATYYCQQSYIIPYTFGQGTKLEIKR
# notes: as for B1
# B3: H4H14758P (antibody, human IgG4 S228P, kappa, V domains shown)
# VH: EVQLVESGGGLVQPGRSLRLSCAASGFTFDDYAMHWVRQAPGKGLEWVSSVRWNGGIIGYADSVKGRFTISRDNAKNSLYLQMNSLRPEDTALYYCAKDIGDVLTGYYGEYGMDVWGQGTTVTVSS
# VL: DIQMTQSPSSLSASVGDRVTIACRASQSITTYLNWYQQKPGKAPKLLIYAASSLQSGVPSRFSGSGSGTDFTLTISSLQPEDFATYYCQQSYISPYTFGQGTKLEIKR
# notes: as for B1
# Legend:
# [1] = molecular target: T1, human IL-36R extracellular domain …; assay: SPR Biacore 4000, mAb captured on anti-hFc, 25C
# How it was run: (§1)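 Analyte 100 nM–3.7 nM (3-fold), 4 min association at 30 μL/minute, 10 min dissociation; HBS-ET pH 7.4 running buffer; antibody captured via anti-hFc. ka, kd from 1:1 model fit; KD and t½ derived from rate constants.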
# [2] = molecular target: T2, in-line fusion protein of human IL-36R …; assay: SPR Biacore 4000, mAb captured on anti-hFc, 25C
# How it was run: as §1
# [3] = molecular target: T1, human IL-36R extracellular domain …; assay: SPR Biacore 4000, mAb captured on anti-hFc, 37C
# How it was run: as §1
# [4] = molecular target: T2, in-line fusion protein of human IL-36R …; assay: SPR Biacore 4000, mAb captured on anti-hFc, 37C
# How it was run: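 First, an anti-human Fc capture surface was prepared by amine coupling; next, anti-IL-36R antibody was captured. Then receptor analyte at 100 nM down to 3.7 nM was flowed for 4 minutes and dissociation monitored for 10 minutes. Finally, kinetics were fitted 1:1.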
# [5] = molecular target: T3, human IL-36R extracellular domain expressed with a C-terminal myc-myc-hexahistidine tag (hIL-36R-MMH) (human, UniProt Q9HB29 20-337); assay: SPR Biacore T200, mAb captured on anti-hFc, 25C, PBS-T pH 6.0 running buffer
# T3 construct: also called Human IL-36R-MMH; REGN2105
# How it was run: (§2)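 Antibodies captured on an anti-human Fc surface; hIL-36R-MMH injected at 100-11.11 nM (3-fold) in PBS-T pH 7.4 for 4 min at 50 μL/min. Dissociation followed 10 min in PBS-T pH 7.4 or pH 6.0 at 25 °C or 37 °C; kd from 1:1 fit, t1/2 derived from kd.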
# [6] = molecular target: T3, human IL-36R extracellular domain …; assay: SPR Biacore T200, mAb captured on anti-hFc, 25C, PBS-T pH 7.4 running buffer
# How it was run: as §2
# [7] = molecular target: T3, human IL-36R extracellular domain …; assay: SPR Biacore T200, mAb captured on anti-hFc, 37C, PBS-T pH 6.0 running buffer
# How it was run: as §2
# [8] = molecular target: T3, human IL-36R extracellular domain …; assay: SPR Biacore T200, mAb captured on anti-hFc, 37C, PBS-T pH 7.4 running buffer
# How it was run: as §2
Binder,100 nM hIL-36R-mFc Bound (RU) [1] [RU],Kd [1] [nM],koff [1] [s⁻¹],kon [1] [M⁻¹ s⁻¹],t1/2 [1] [min],100 nM hIL-36R-Trap-mFc Bound (RU) [2] [RU],Kd [2] [nM],koff [2] [s⁻¹],kon [2] [M⁻¹ s⁻¹],t1/2 [2] [min],100 nM hIL-36R-mFc Bound (RU) [3] [RU],Kd [3] [nM],koff [3] [s⁻¹],kon [3] [M⁻¹ s⁻¹],t1/2 [3] [min],100 nM hIL-36R-Trap-mFc Bound (RU) [4] [RU],Kd [4] [nM],koff [4] [s⁻¹],kon [4] [M⁻¹ s⁻¹],t1/2 [4] [min],further results
B1,121,0.526,0.000109,207000,106,134,0.636,0.0001,158000,115,173,1.02,0.000222,217000,52,195,1.7,0.000283,166000,41,100 nM Human IL-36R-MMH Bound (RU) [5]: 69 RU; koff [5]: 0.000972 s⁻¹; t1/2 [5]: 12 min; 100 nM Human IL-36R-MMH Bound (RU) [6]: 80 RU; koff [6]: 0.000545 s⁻¹; t1/2 [6]: 21 min; 100 nM hIL-36R-MMH Bound (RU) [7]: 85 RU; koff [7]: 0.0039 s⁻¹; t1/2 [7]: 3 min; 100 nM hIL-36R-MMH Bound (RU) [8]: 94 RU; koff [8]: 0.00187 s⁻¹; t1/2 [8]: 6 min
B2,167,0.173,9.97e-05,575000,116,202,0.212,0.000103,485000,113,235,0.243,0.00015,616000,77,281,0.374,0.000196,523000,59,100 nM Human IL-36R-MMH Bound (RU) [5]: 98 RU; koff [5]: 0.000887 s⁻¹; t1/2 [5]: 13 min; 100 nM Human IL-36R-MMH Bound (RU) [6]: 105 RU; koff [6]: 0.000597 s⁻¹; t1/2 [6]: 19 min; 100 nM hIL-36R-MMH Bound (RU) [7]: 109 RU; koff [7]: 0.0026 s⁻¹; t1/2 [7]: 4 min; 100 nM hIL-36R-MMH Bound (RU) [8]: 113 RU; koff [8]: 0.00129 s⁻¹; t1/2 [8]: 9 min
B3,161,0.309,0.000163,526000,71,197,0.413,0.00018,436000,64,210,0.517,0.000286,554000,40,251,0.777,0.000363,468000,32,100 nM Human IL-36R-MMH Bound (RU) [5]: 103 RU; koff [5]: 0.0018 s⁻¹; t1/2 [5]: 6 min; 100 nM Human IL-36R-MMH Bound (RU) [6]: 108 RU; koff [6]: 0.00112 s⁻¹; t1/2 [6]: 10 min; 100 nM hIL-36R-MMH Bound (RU) [7]: 120 RU; koff [7]: 0.00339 s⁻¹; t1/2 [7]: 3 min; 100 nM hIL-36R-MMH Bound (RU) [8]: 126 RU; koff [8]: 0.00226 s⁻¹; t1/2 [8]: 5 min
